Substrate in the data set: O=C(O)c1nc(O)ccc1O
Kind of data set: purified protein. It is filed as biochemical, Bordetella bronchiseptica. To be noted: 50 mM PBS pH 7.4 (unit definition says pH 7.0), 25 °C, 0 to 300 μM 3,6DHPA, no added metal stated.

This is an account of results in article PMC10142695, “Expression and Characterization of 3,6-Dihydroxy-picolinic Acid Decarboxylase PicC of Bordetella bronchiseptica RB50” (Microorganisms, 2023).

What is called Km is the substrate concentration at which the rate is half of its maximum.

B1: PicCRB50 (Bordetella bronchiseptica RB50) (protein)
chain: MTKVRKIAFEEHFTAVGFGDYSKAFVQHLDPGFAAELGARLTDFGAGRLAEMDAAGIDYAILSQTGPGVQGEPDAAVALRRARENNDFLAERIARHPDRFGGFAALPMHDPKTAAAELTRAVRELGFKGSLVNGHTNGVYYDDPAYDAFWEQMQELDVPLYLHPFDAYVLPHAYKGHPELAGATWGWGVETGTHALRLLFGGVFDRFPKLKIILGHMGEGLPFQRWRFDSRFAAYPYGVKLQRAPSEYIGSNILITTSGVCSHPTLVGAIAEMGAEAVMFSIDYPYESTALAVEFIESAPLDAATRELVCYGNAARLFKL
Take B1: the Km was 20.41 ± 2.60 µM and the kcat is reported as 7.61 ± 0.53 S^−1.
